We go through 4 substances from patent publication US6436654.

Among the targets are human HIF-1α (human) (UniProt Q16665); GAL4/HIF 1-826 (human); GAL4/HIF 71-826 (human); GAL4/HIF 526-826 (human); GAL4/HIF 1-813 (human); GAL4/HIF 776-826 (human); GAL4/HIF 531-584 (human); GAL4/Arnt 128-603 (UniProt P04386); GAL4/Arnt 128-774 (UniProt P04386).
Common to all, as to experiment: cell-based or functional assay
Experiment [1] deals with GFP-HIF-1α (Aequeora victoria; human) [GFP: P42212].

human HIF-1α (human), sequence (Q16665 whole entry, the tested form may be a part): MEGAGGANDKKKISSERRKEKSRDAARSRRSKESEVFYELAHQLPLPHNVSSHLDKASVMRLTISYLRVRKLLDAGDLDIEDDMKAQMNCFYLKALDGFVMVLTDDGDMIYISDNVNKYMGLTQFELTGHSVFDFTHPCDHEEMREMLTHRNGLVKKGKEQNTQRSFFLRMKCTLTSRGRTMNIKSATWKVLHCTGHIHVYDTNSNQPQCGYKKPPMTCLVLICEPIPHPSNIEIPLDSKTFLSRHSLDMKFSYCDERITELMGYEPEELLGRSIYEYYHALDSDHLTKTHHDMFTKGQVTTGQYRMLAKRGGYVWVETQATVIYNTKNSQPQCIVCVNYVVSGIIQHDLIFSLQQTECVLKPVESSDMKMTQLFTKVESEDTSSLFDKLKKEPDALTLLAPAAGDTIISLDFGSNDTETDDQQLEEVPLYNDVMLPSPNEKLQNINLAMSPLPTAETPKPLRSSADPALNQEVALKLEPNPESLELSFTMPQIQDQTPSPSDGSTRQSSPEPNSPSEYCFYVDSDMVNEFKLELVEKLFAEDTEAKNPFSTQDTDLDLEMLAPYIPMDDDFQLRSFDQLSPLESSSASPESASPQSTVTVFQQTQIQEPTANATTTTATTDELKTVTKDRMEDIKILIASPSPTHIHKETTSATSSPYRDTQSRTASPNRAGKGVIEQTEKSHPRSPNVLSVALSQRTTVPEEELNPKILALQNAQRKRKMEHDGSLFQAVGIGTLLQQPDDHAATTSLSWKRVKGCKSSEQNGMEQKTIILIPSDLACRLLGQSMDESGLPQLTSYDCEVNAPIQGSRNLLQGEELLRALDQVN

On to “CBP (full-length mouse CBP) (from UniProt P45481 1-2441)”, for which, in the experiment with human HIF-1α (human), the pT81/HRE-luc reporter gene activity in COS7 cells coexpressing HIF-1α and Arnt, hypoxia was 2 to 3 fold. In the experiment with GAL4/HIF 1-826 (human), this substance registered a GAL4-responsive luciferase reporter gene activity in COS7 cells, hypoxia of 19 fold; a GAL4-responsive luciferase reporter gene activity in COS7 cells, normoxia of 2 to 3 fold; a GAL4-responsive reporter gene activity in COS7 cells, hypoxia of 8 to 10 fold. This substance also showed a GAL4-responsive luciferase activity in COS7 cells, hypoxia, against hypoxia without exogenous coactivators with GAL4/HIF 71-826 (human) of 30 fold. The substance also had a GAL4-responsive reporter gene activity in COS7 cells with GAL4/HIF 526-826 (human) of 7 to 9 fold. The same substance displayed a GAL4-responsive reporter gene activity in COS7 cells, hypoxia in the experiment with GAL4/HIF 1-813 (human) of 14 fold. In the experiment with GAL4/HIF 776-826 (human), the GAL4-responsive reporter gene activity in COS7 cells worked out at 29 fold. In [1], this substance returned an HRE-luciferase reporter gene activity in COS7 cells, hypoxia of 3 fold and an HRE-luciferase reporter gene activity in COS7 cells, hypoxia over normoxia of 15 fold. Further, the GAL4-responsive reporter gene activity in COS7 cells, hypoxia with GAL4/HIF 531-584 (human) turned out to be 11 fold.

Consider “Ref-1 (from UniProt P27695 1-318) (enzyme)”, for which the GAL4-responsive reporter gene activity in COS7 cells, hypoxia, Ref-1 coexpressed with CBP and SRC-1 with GAL4/HIF 776-826 (human) is 53 fold; with GAL4/HIF 531-584 (human), 12 fold.

In turn, TIF2 (from UniProt Q15596 1-1464) gave a pT81/HRE-luc reporter gene activity in COS7 cells coexpressing HIF-1α and Arnt, hypoxia over normoxia with human HIF-1α (human) of 12 fold.

In the case of “human HIF-1α (from UniProt Q16665 1-826)”, the figures for the GAL4-responsive reporter gene activity in COS7 cells, normoxia with GAL4/Arnt 128-603 and with GAL4/Arnt 128-774 were 5 fold and 4 fold, respectively.
